{"source": "patent US20240174744A1", "about": "(SCIRHOM, published 2024)", "binders": {"B1": {"name": "antibody 16 (antibody, V domains shown)", "VH": "QVTLKESGPGILQPSQTLSLTCSFSGFSLSTFALGVGWIRQPSGRGLEWLAHIWWDDDKYYNPALKSRLTISKDTSKNHVFLKIANVDTADTATYYCARITTYYYGMDYWGQGTSVTVSS", "VL": "DIVLSQSPATLSVTPGDSVSLFCRASQSIGNHLHWYQQESHASPRLLIKYASQSISGIPSRFSGSGSGTDFTLSINSVETEDFGMYFCQQSYNWPLTFGAGTKLELK", "notes": "Mouse IgG, kappa light chain; also called clone #16; m16"}, "B2": {"name": "antibody 48 (antibody, V domains shown)", "VH": "QVQLQQSGTELVRPGTSVKVSCKASGYAFTNYLIEWVKQRPGQGLEWIGVINPGSGFTKYNEKFKGKATLTADKSSSTVYMHLSSLTSEDSAVYFCARGLYRAMDYWGQGTSVTVSS", "VL": "DIQMTQSPASQSASLGESVTITCLASQTIATWLAWYQQKPGKSPQLLIYGATTLADGVPSRFSGGGSGTKFSFKISSLQAEDFVSYYCQQLYSTPYTFGGGTKLEIK", "notes": "Mouse IgG, kappa light chain; also called clone #48; purified antibody 48"}}, "key": {"[1]": {"biological_target": "T1, human iRhom1, endogenously expressed on RH-30 cells (human, UniProt Q96CC6 1-855)", "T1 construct": "RH-30 cells are described as endogenously negative for iRhom2 but endogenously expressing iRhom1; also called NP_071895.3", "T1 sequence": "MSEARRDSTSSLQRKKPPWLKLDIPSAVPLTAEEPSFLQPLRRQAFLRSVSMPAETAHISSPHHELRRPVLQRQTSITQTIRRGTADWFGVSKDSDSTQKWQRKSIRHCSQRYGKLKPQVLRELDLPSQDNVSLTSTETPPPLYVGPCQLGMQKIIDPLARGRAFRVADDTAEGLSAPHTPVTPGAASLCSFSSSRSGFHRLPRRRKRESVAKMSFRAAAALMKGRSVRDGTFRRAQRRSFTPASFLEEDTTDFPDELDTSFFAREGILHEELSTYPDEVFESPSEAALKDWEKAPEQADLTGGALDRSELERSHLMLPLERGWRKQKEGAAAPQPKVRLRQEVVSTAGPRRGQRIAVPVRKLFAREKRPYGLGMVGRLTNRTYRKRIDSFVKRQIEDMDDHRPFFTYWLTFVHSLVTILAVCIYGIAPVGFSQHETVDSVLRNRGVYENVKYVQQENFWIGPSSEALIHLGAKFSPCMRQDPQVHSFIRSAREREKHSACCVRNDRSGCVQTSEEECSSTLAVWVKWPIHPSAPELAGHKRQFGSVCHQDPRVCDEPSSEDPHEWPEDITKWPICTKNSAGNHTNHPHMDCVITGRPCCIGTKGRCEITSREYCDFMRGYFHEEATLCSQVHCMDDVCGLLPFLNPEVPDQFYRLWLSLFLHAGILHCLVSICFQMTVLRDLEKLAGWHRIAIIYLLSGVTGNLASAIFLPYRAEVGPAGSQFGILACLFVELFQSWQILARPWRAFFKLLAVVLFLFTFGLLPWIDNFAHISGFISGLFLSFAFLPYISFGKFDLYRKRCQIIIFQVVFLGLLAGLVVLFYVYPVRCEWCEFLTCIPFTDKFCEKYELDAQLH", "experiment": "FACS on RH-30 cells (iRhom1-positive, not iRhom2-positive)"}, "[2]": {"biological_target": "T2, miR2-FL-WT-T7 (mouse iRhom2 full length wild type C-terminally tagged with 3 consecutive copies of the T7 … (mouse, UniProt Q80WQ6 1-827))", "T2 construct": "also called mouse iRhom2 variant expressed by MEF-DKO-miR2-FL-WT-T7 cells", "T2 sequence": "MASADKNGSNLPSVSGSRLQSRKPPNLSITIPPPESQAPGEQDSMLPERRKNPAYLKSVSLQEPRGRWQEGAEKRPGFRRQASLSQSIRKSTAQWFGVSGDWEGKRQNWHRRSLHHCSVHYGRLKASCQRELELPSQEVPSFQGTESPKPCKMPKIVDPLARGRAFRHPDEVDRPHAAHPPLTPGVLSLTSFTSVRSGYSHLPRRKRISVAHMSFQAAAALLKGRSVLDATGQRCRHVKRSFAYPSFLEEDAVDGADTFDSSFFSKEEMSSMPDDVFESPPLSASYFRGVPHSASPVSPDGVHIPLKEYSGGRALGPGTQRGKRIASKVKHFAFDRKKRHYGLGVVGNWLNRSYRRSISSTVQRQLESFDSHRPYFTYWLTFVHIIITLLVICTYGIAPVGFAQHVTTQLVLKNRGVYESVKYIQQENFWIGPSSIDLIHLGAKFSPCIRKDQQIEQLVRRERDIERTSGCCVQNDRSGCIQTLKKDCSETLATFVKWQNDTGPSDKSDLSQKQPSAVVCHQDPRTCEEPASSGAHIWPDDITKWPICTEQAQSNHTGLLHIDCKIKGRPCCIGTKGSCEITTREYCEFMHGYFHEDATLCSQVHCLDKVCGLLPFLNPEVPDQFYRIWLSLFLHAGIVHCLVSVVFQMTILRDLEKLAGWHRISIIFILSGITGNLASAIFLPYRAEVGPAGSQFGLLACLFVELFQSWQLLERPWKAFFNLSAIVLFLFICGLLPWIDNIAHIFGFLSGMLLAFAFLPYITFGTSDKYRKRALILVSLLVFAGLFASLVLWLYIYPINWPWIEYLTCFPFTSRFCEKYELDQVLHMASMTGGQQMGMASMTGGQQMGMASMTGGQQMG", "experiment": "FACS, MEF-DKO-miR2-FL-WT-T7 cells", "description": "In brief, immortalized MEF-DKO-EV control cells, MEF-DKO-hiR2-FL-WT-T7 cells and MEF-DKO-miR2-FL-WT-T7 cells were harvested with 10 mM EDTA in PBS, washed and resuspended in FACS buffer (PBS, 3% FBS, 0.05% sodium azide), and seeded in Nunc U-bottom 96-well plates (Thermo Fisher Scientific, USA) at approximately 3×10⁵ cells per well. To pellet cells and remove supernatants, the plates were centrifuged at 1,500 rpm and 4° C. for 3 minutes. For primary staining, cells were resuspended in 100 μl per well of either FACS buffer alone (controls), mouse monoclonal anti-T7 IgG (Merck Millipore, USA) at 3 μg/ml FACS buffer or the purified antibodies 3, 5, 16, 22, 34, 42, 43, 44, 48, and 50 of the present disclosure also at 3 μg/ml FACS buffer and incubated on ice for 1 hour. Afterwards, plates were centrifuged at 1,500 rpm and 4° C. for 3 minutes and washed twice with 200 μl per well of FACS buffer. For secondary staining, cells were spun down and resuspended in 100 μl per well of PE-conjugated goat anti-mouse IgG F(ab′)2 detection fragment (Dianova, Germany) diluted 1:100 in FACS buffer. Protected from light, the cell suspensions were incubated on ice for 1 hour. […] Finally, cells were resuspended in 150 μl per well of FACS buffer and analyzed using a BD Accuri™ C6 Plus flow cytometer (Becton Dickinson, Germany)."}}, "data": [{"binder": "B1", "values": [{"measurement": "binding result", "setting": "[1]", "result": "no binding (tested: 3 µg/ml)"}]}, {"binder": "B2", "values": [{"measurement": "binding result", "setting": "[2]", "result": "no binding (tested: 3 µg/ml)"}]}]}
